Source: the supplement of paper PMC6757056
± gives the standard deviation of the averaged measurements.

B1: library; a variant is named by its letters at N, in order (parent)
chain: GCUGUCACCGAGAAACUGUGAAGUAUAUCUUAAACCUGGGCACUUAAAAGAUAUAUGGAGUUAGUAGUGCAACCUGCUCGGUCUGAUGAGUCCNNNNNNGGACGAAACAGC

Assays:
cyclic di-GMP [1] = variants of: B1; assay: normalized RNA/DNA level without ligand (relative to sTRSVctl = 100) (log10 (% of sTRSVctl)); HEK293T; ligand: cyclic di-GMP (c-di-GMP-II aptamer); higher = less ribozyme self-cleavage, higher mRNA level; settings: reporter: mCherry (pCS4076), ligand present: no
In short: (§1)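 Ribozyme switch library plasmids with mCherry reporters (eGFP in certain ligand experiments) went into HEK293T cells at 4 µg per 6-well well. Where ligand was used, it was applied 1 h before transfection, and total RNA was extracted with EDTA 72 h later for reverse transcription, amplification, barcoding and sequencing. RNA level is the RNA-to-DNA read ratio normalized to a spiked-in non-cleaving sequence or to the leading sequences, then scaled and log-transformed. Scaling was ×100 with log10, the leading set comprised 25 sequences, and the cutoff was ≥100 DNA reads.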

cyclic di-GMP [2] = variants of: B1; assay: normalized RNA/DNA level with ligand (relative to sTRSVctl = 100) (log10 (% of sTRSVctl)); HEK293T; ligand: cyclic di-GMP (c-di-GMP-II aptamer); ligand concentration (+) RNA-Seq: 1 mM; higher = less ribozyme self-cleavage, higher mRNA level; settings: reporter: mCherry (pCS4076), ligand present: yes
In short: as §1

Variant	normalized RNA/DNA level without ligand (log10) (cyclic di-GMP [1])	normalized RNA/DNA level with ligand (log10) (cyclic di-GMP [2])
CUAGGA	1.54 ± 0.055	1.72 ± 0.099
UAACUA	1.688 ± 0.0017	1.82 ± 0.12
CCACGU	1.64 ± 0.046	1.81 ± 0.13
UAGCUA	1.71 ± 0.038	1.82 ± 0.12
UUACGG	1.82 ± 0.058	1.9 ± 0.094
GACCGC	1.81 ± 0.036	1.8 ± 0.083
CGGGAC	1.669 ± 0.012	1.79 ± 0.085
CCACAG	1.54 ± 0.028	1.75 ± 0.18
GAUCGG	1.747 ± 0.013	1.82 ± 0.034
GUGAGC	1.51 ± 0.086	1.77 ± 0.041
CCCGCA	1.66 ± 0.037	1.8 ± 0.08
AUAACA	1.62 ± 0.003	1.77 ± 0.14
UCGAAG	1.52 ± 0.097	1.74 ± 0.058
CAGAAC	1.54 ± 0.07	1.75 ± 0.089
AUUUUC	1.74 ± 0.024	1.85 ± 0.092
UGUGGA	1.58 ± 0.067	1.76 ± 0.062
UCUACU	1.696 ± 0.012	1.82 ± 0.097
GCGCAC	1.51 ± 0.075	1.66 ± 0.075
UACAAG	1.69 ± 0.02	1.8 ± 0.12
CGCGAA	1.23 ± 0.12	1.44 ± 0.11
CUACUG	1.64 ± 0.025	1.83 ± 0.078
UCUAGG	1.81 ± 0.049	1.88 ± 0.12
UGCUGU	1.748 ± 0.01	1.87 ± 0.1
UCCCGA	1.77 ± 0.059	1.87 ± 0.1

Variant	normalized RNA/DNA level without ligand (log10) (cyclic di-GMP [1])	normalized RNA/DNA level with ligand (log10) (cyclic di-GMP [2])
GAAUGU	1.579 ± 0.014	1.76 ± 0.07
AAAUAC	1.665 ± 0.0071	1.8 ± 0.11
GCGGGC	1.53 ± 0.028	1.69 ± 0.064
CAAUGC	1.76 ± 0.076	1.83 ± 0.14
AGGGAU	1.54 ± 0.084	1.74 ± 0.086
CCCAUC	1.728 ± 0.0037	1.84 ± 0.14
CAAAUC	1.61 ± 0.034	1.76 ± 0.091
GACAGU	1.662 ± 0.0086	1.79 ± 0.11
AAAGAA	1.34 ± 0.14	1.55 ± 0.1
UCGUUA	1.44 ± 0.076	1.63 ± 0.051
UAUCUC	1.81 ± 0.039	1.9 ± 0.1
CCCGAU	1.64 ± 0.027	1.83 ± 0.12
ACGGCG	1.75 ± 0.067	1.86 ± 0.1
CGCACA	1.41 ± 0.091	1.59 ± 0.11
CGUCAG	1.79 ± 0.056	1.92 ± 0.11
UGCUGC	1.76 ± 0.025	1.92 ± 0.1
GCUAGC	1.696 ± 0.0018	1.8 ± 0.17
GCCUAC	1.55 ± 0.059	1.72 ± 0.047
GCCUCG	1.761 ± 0.0043	1.892 ± 0.0091
AAUUCG	1.6472 ± 0.0012	1.8 ± 0.12
AGAAAU	1.71 ± 0.03	1.83 ± 0.058
CAUGCC	1.79 ± 0.029	1.89 ± 0.15
CCCCCU	1.704 ± 0.0062	1.86 ± 0.13
CAGCUC	1.7753 ± 0.00068	1.87 ± 0.099

Variant	normalized RNA/DNA level without ligand (log10) (cyclic di-GMP [1])	normalized RNA/DNA level with ligand (log10) (cyclic di-GMP [2])
AGCGGG	1.76 ± 0.043	1.9 ± 0.083
AGACAC	1.68 ± 0.042	1.82 ± 0.1
UUAGGC	1.7 ± 0.021	1.83 ± 0.14
UGGAUA	1.65 ± 0.043	1.8 ± 0.11
ACCGAG	1.57 ± 0.031	1.74 ± 0.11
AAGUAU	1.62 ± 0.032	1.8 ± 0.095
AUCAGU	1.67 ± 0.065	1.82 ± 0.02
AUAUAC	1.68 ± 0.019	1.82 ± 0.12
GCGGGU	1.769 ± 0.0058	1.87 ± 0.12
UAUGGA	1.53 ± 0.017	1.73 ± 0.098
UUAUAC	1.73 ± 0.018	1.86 ± 0.053
ACCUUC	1.74 ± 0.042	1.83 ± 0.11
ACCCUA	1.624 ± 0.011	1.78 ± 0.072
GCAUAA	1.41 ± 0.19	1.61 ± 0.064
UGUAUC	1.734 ± 0.0024	1.87 ± 0.11
UUCGAC	1.659 ± 0.0063	1.79 ± 0.12
UCCCGC	1.801 ± 0.018	1.91 ± 0.1
UGGCCC	1.88 ± 0.062	1.96 ± 0.094
CGAUAC	1.61 ± 0.033	1.77 ± 0.084
CGCGUC	1.77 ± 0.062	1.88 ± 0.15
AUAAAU	1.59 ± 0.005	1.8 ± 0.11
UUCUGA	1.73 ± 0.023	1.83 ± 0.046
CUUAUU	1.54 ± 0.023	1.71 ± 0.065
ACGGGG	1.693 ± 0.015	1.82 ± 0.1

Variant	normalized RNA/DNA level without ligand (log10) (cyclic di-GMP [1])	normalized RNA/DNA level with ligand (log10) (cyclic di-GMP [2])
CCCUUG	1.643 ± 0.0095	1.81 ± 0.13
GAGAUA	1.69 ± 0.015	1.76 ± 0.099
CCACCC	1.798 ± 0.016	1.87 ± 0.097
UUCCUG	1.776 ± 0.017	1.91 ± 0.11
GAUUAC	1.722 ± 0.0096	1.83 ± 0.081
AUUAUU	1.63 ± 0.042	1.79 ± 0.1
UUACUU	1.68 ± 0.022	1.83 ± 0.11
CUAAAG	1.64 ± 0.033	1.79 ± 0.055
CCCGCG	1.79 ± 0.046	1.9 ± 0.044
UACACU	1.714 ± 0.014	1.84 ± 0.059
AGGUUU	1.7 ± 0.04	1.85 ± 0.11
CCUUUC	1.7 ± 0.021	1.85 ± 0.098
ACCGCU	1.7 ± 0.028	1.86 ± 0.12
CAGUGC	1.71 ± 0.05	1.81 ± 0.11
AUAUGC	1.67 ± 0.021	1.83 ± 0.13
GUAACC	1.77 ± 0.084	1.87 ± 0.092
CUUCCA	1.61 ± 0.089	1.78 ± 0.085
GUAGCC	1.69 ± 0.071	1.8 ± 0.11
UCUCGU	1.69 ± 0.037	1.85 ± 0.075
UAGGUU	1.67 ± 0.051	1.82 ± 0.11
UCUUCA	1.75 ± 0.057	1.8 ± 0.1
CCUAAG	1.56 ± 0.049	1.74 ± 0.095
AGUGUU	1.617 ± 0.0053	1.79 ± 0.12
CCAUCC	1.81 ± 0.043	1.92 ± 0.092

Variant	normalized RNA/DNA level without ligand (log10) (cyclic di-GMP [1])	normalized RNA/DNA level with ligand (log10) (cyclic di-GMP [2])
CUGGAG	1.604 ± 0.006	1.77 ± 0.099
GUCCGC	1.84 ± 0.03	1.93 ± 0.071
AUCUAA	1.52 ± 0.019	1.7 ± 0.091
CAUGCG	1.81 ± 0.029	1.9 ± 0.14
UACCCG	1.766 ± 0.014	1.9 ± 0.063
CAGCGA	1.49 ± 0.1	1.7 ± 0.055
UGGCCA	1.79 ± 0.029	1.86 ± 0.12
UGUCCA	1.8 ± 0.013	1.87 ± 0.068
UGGUAU	1.661 ± 0.013	1.82 ± 0.13
AGCCCA	1.84 ± 0.046	1.92 ± 0.11
GUACGU	1.63 ± 0.039	1.81 ± 0.063
UAUCGG	1.743 ± 0.0093	1.84 ± 0.11
CUCCAC	1.719 ± 0.016	1.84 ± 0.092
AAUCAA	1.51 ± 0.1	1.73 ± 0.078
CCAGGU	1.69 ± 0.061	1.82 ± 0.081
CGUGUU	1.6 ± 0.033	1.78 ± 0.12
CUGGGA	1.55 ± 0.09	1.74 ± 0.093
GUGUCG	1.685 ± 0.012	1.79 ± 0.11
GUUACC	1.79 ± 0.059	1.9 ± 0.1
GUCGUG	1.62 ± 0.041	1.79 ± 0.1
